Data taken from patent US9028810B2, “Composition for inducing migration of neural stem cells containing periostin as effective ingredient” (Ajou University Industry—Academic Cooperations Foundatin, priority 2010, dated 2015).

Key:
neural stem cells = assay: In vitro migration assay using ERK pathway and CDK5 pathway inhibitors; format: cell-based, human; conditions: 12 hours
Text: It has been reported that, in the development of the central nervous system, neural stem cells migrate from the subventricular zone to cortex through radial glial cells using the ERK (extracellular signal regulated kinase) and CDK5 signaling pathways, and in the neuronal migration, DCX participated in nucleus translocation, neucleokinesis (Niethammer et al., 2000).
Cultured neural stem cells were detached with 0.05% trypsin, washed with DMEM medium and re-suspended in DMEM medium, after which 5×10^4 cells were inoculated into an upper chamber (Costar Transwell) in 200 μl of 10% FBS-containing DMEM medium.
After 12 hours, in order to determine the number of cells that migrated from the upper chamber through a 8-μm porous polycarbonate membrane to the lower portion of the membrane in response to the stimulation of the lower chamber, the migrated neural stem cells were stained with hematoxylin & eosin and counted.

[1] = test system: DCX and ERK in neural stem cells; assay: Transwell membrane immunostaining of ERK and DCX in migrated cells; format: cell-based, human; conditions: periostin 10 μg/ml, 12 hours; for location of DCX in migrated cells: with or without inhibitor; for cell migration: VEGF 10 ng/ml
Method: To analyze the ERK and DCX affection of migrated cells, transwell membrane immunostaining was performed using ERK and DCX antibodies (Cell signaling tech., Danver, Mass.).
Cultured neural stem cells were detached with 0.05% trypsin, washed with DMEM medium and re-suspended in DMEM medium, after which 5×10^4 neural stem cells were inoculated into an upper chamber (Costar Transwell) in 200 μl of 10% FBS-containing DMEM medium. After one day, a lower chamber was treated with each of VEGF (10 ng/ml), periostin (10 μg/ml) and periostin+inhibitor. After 12 hours, the changes in locations of DCX and ERK in the cells that migrated from the upper chamber through the 8-μm porous polycarbonate membrane to the lower portion of the membrane in response to the stimulation of the lower chamber were examined.
Next, the membrane was washed with PBS, blocked twice with a solution of 5% goat serum and 0.5% triton X-100 in PBS for 30 minutes, and then washed with a solution of 0.5% BSA (bovine serum albumin) in PBS for 15 minutes. After this, the membrane was incubated with a 1:500 dilution of goat polyclonal human DCX antibody and a 1:1000 dilution of rabbit polyclonal human ERK antibody at 4° C. overnight, and then washed twice with PBS for 15 minutes each time. Next, the membrane was incubated with biotin-conjugated anti-rabbit secondary antibody at room temperature for 1 hour and washed trice with PBS, after which […] was detected by staining the membrane using an avidin-biotin kit (Vector, Calif.) and a diaminbenzidin peroxidase (DAB) kit (Vector, Calif.).

[2] = test system: HB1.F3 human neural stem cell line; assay: Boyden chamber migration assay, HB1.F3 neural stem cells; format: cell-based; conditions: for increase in ability to induce the migration of neural stem cells compared to not treated: Boyden chamber
Method: (§1) In order to examine the effect of periostin on the migration of neural stem cells, a Boyden chamber assay was performed using two human neural stem cell lines (HB1.F3 and HB1.F5), thereby determining whether human neural stem cells migrated in response to periostin in vitro. For controls, VEGF (vascular endothelial growth factor) was used as a positive control, and FBS-DMEM medium was used as a negative control.
(§2) Specifically, cultured neural stem cells were detached with 0.05% trypsin, washed with DMEM medium, and then re-suspended in DMEM medium, after which 5×10^4 cells seeded into an upper chambers (Costar Transwell) in 200 μl of 10% FBS-containing DMEM medium. After one day, a lower chamber was treated with various concentrations of periostin or VEGF. The periostin was used at concentrations of 5, 10 and 20 μg/ml, and the VEGF was used at concentrations of 5, 10 and 20 ng/ml. 10% FBS-DMEM medium was used as a negative control. After 12 hours, in order to determine the number of cells that migrated from the upper chamber through a 8-μm porous polycarbonate membrane to the lower portion of the membrane in response to the stimulation of the lower chamber, the migrated neural stem cells were stained with hematoxylin and then counted.
(§3) After one day, a lower chamber was treated with 10 μg/ml of periostin, and after 4 hours, 8 hours, 12 hours and 24 hours, the migrated cells were stained with H&E (hematoxylin & eosin), counted and photographed (Olympus BX51, Japan).

[3] = test system: HB1.F5 human neural stem cell line; assay: Boyden chamber migration assay, HB1.F5 neural stem cells; format: cell-based
Method: as §1
as §2, with “The periostin was used at concentrations of 5, 10 and 20 μg/ml, and the VEGF was used at concentrations of 5, 10 and 20 ng/ml. 10% FBS-DMEM medium was used as a negative control.” left out
as §3

[4] = test system: PI3K/AKT signaling pathway (PI3K-AKT-mTOR-CDK5-Nudel1, PAK1); assay: Western blotting of FAK / PI3K-AKT signaling pathway after periostin treatment; format: cell-based, human
Method: The FAK signaling pathway is linked to kinases as its downstream pathways and transduces signals. With respect to cell migration, the PI3K/AKT signaling pathway (PI3K-AKT-mTOR-CDK5-Nudel1, PAK1) is frequently used as the downstream pathway of FAK, and thus the following experiment was performed in order to determine the kinase activation pathway.
First, neural stem cells treated with periostin were washed with PBS and lysed with PMSF and a protease inhibitor in RIPA buffer (0.5% sodiumdeoxycholate, 0.1% sodiumdodecyl sulfate, 1% NP-40, PBS). Protein concentration was determined by a Bio-Rad-DC protein assay (Bio-Rad, Hercules, Calif., US). The samples were adjusted to the same protein concentration, after 30 μg of each protein was separated on SDS-PAGE gel. Then, protein samples were transferred to an immobilon-P membrane (Millipore Corp., MA, US). For protein detection, the membrane was incubated in TBS-T 5% skim milk at room temperature for 30 minutes and washed three times with TBS-T for 15 minutes each time. Then, the membrane was incubated with primary antibodies of FAK, pFAK, PAK and pPAK (1:1000 dilution; Epitomics) in 5% BSA-TBS-T overnight at 4° C. Then, the membrane was washed three times with TBS-T for 15 minutes each time. Then, the membrane was incubated with secondary anti-rabbit antibody (1:2000 dilution; Zymed, Calif., USA) at room temperature for 1 hour. The membrane was washed three times with TBS-T, after which the antibody binding protein was added to an ECL Western blotting detection solution (Amersham Pharmacia Biotechnology, buckinghamahire, UK) for 1 minute and exposed to Kodak X-ray firm for detection. The Western blotting analysis was performed at various time points between 0 and 12 hours after treatment with periostin.

[5] = neural stem cells, Western blotting 0-12 hours

Molecule: COc1cccc(-c2cc(=O)c3ccccc3o2)c1N [PD98059]
- inhibition of migration of neural stem cells induced by periostin (neural stem cells; 20 nM inhibitor with periostin in lower chamber): 40%
- migration of neural stem cells in control group not treated with periostin (neural stem cells; 20 nM inhibitor): inhibited

Molecule: CC[C@H](CO)Nc1nc(NCc2ccccc2)c2ncn(C(C)C)c2n1 [roscovitine, reference compound]
- location of DCX in migrated cells [1]: the concentration of DCX around the nuclei was inhibited

Molecule: vascular endothelial growth factor [VEGF, reference compound]
- increase in ability to induce the migration of neural stem cells compared to not treated ([2]; HB1.F3 cells, 12 hours): 25%
- concentration at which ability of VEGF to induce migration was the highest ([2]; tested 5, 10 and 20 ng/ml, 12 hours): 5 ng/mL
- cell migration [1]: induced cell migration

B1: periostin (protein)
chain: NNHYDKILAHSRIRGRDQGPNVCALQQILGTKKKYFSTCKNWYKKSICGQKTTVLYECCPGYMRMEGMKGCPAVLPIDHVYGTLGIVGATTTQRYSDASKLREEIEGKGSFTYFAPSNEAWDNLDSDIRRGLESNVNVELLNALHSHMINKRMLTKDLKNGMIIPSMYNNLGLFINHYPNGVVTVNCARIIHGNQIATNGVVHVIDRVLTQIGTSIQDFIEAEDDLSSFRAAAITSDILEALGRDGHFTLFAPTNEAFEKLPRGVLERIMGDKVASEALMKYHILNTLQCSESIMGGAVFETLEGNTIEIGCDGDSITVNGIKMVNKKDIVTNNGVIHLIDQVLIPDSAKQVIELAGKQQTTFTDLVAQLGLASALRPDGEYTLLAPVNNAFSDDTLSMDQRLLKLILQNHILKVKVGLNELYNGQILETIGGKQLRVFVYRTAVCIENSCMEKGSKQGRNGAIHIFREIIKPAEKSLHEKLKQDKRFSTFLSLLEAADLKELLTQPGDWTLFVPTNDAFKGMTSEEKEILIRDKNALQNIILYHLTPGVFIGKGFEPGVTNILKTTQGSKIFLKEVNDTLLVNELKSKESDIMTTNGVIHVVDKLLYPADTPVGNDQLLEILNKLIKYIQIKFVRGSTFKEIPVTVYKPIIKKYTKIIDGVPVEITEKETREERIITGPEIKYTRISTGGGETEETLKKLLQEEVTKVTKFIEGGDGHLFEDEEIKRLLQGDTPVRKLQANKKVQGSRRRLREGRSQ
notes: induces migration of neural stem cells
- migration of neural stem cells over time ([2]; HB1.F3, 10 μg/ml periostin, 4, 8, 12 and 24 hours): increased with time
- increase in induction of migration relative to that by VEGF ([2]; HB1.F3 cells): about 4 times
- increase in ability to induce the migration of neural stem cells compared to not treated ([2]; HB1.F3 cells, 12 hours): about 100%
- concentration at which ability of periostin to induce migration was the highest ([2]; tested 5, 10 and 20 μg/ml, 12 hours): 10 µg/mL
- migration of neural stem cells over time ([3]; HB1.F5, 10 μg/ml periostin, 4, 8, 12 and 24 hours): increased with time
- migration of neural stem cells upon treatment ([3]; HB1.F5 cells, 12 hours): increased upon treatment with periostin
- time for which Nudel1 activation was maintained ([4]; activated when PAK1 activation decreased): 12 h
- time after treatment at which AKT and mTOR were activated [4, 5]: 1 h
- time after treatment at which PAK1 started to be activated [4, 5]: 1 h
- time after treatment from which FAK was highly activated [4, 5]: 30 min
- time up to which CDK5 activation was maintained [4, 5]: 12 h
- time up to which PAK1 activation was maintained [4, 5]: 6 h
- cell migration [1]: induced cell migration
- location of DCX in migrated cells [1]: DCX was concentrated around the nuclei
